Our source for the percent co-depleted values is article PMC4615894.

For the assay, the target named is CENP-W (Xenopus (endogenous in egg extract)). Put plainly: co-IP.

Consider CENP-C (natural protein), for which the percent co-depleted was 80%.
